Results published in US6608174B1, “Radiolabeled vasoactive intestinal peptide analogs for diagnosis and radiotherapy” (Dabur Research Foundation, priority 2000, dated 2003).
Square brackets hold non-standard residues; d marks the D form. Ends that are not written are not given here. dPhe(4-Cl) = N[C@H](Cc1ccc(Cl)cc1)C(=O)O; Aib = CC(C)(N)C(=O)O

Assays:
[1] = target: VIP receptors on human tumor cell lines (human); test: displacement of 125I labeled VIP (10-28) fragment on PA1 cells
[2] = target: high affinity (nM range), low surface expression receptor on human tumor cells (VIP receptor) (human); test: homologous radioligand competition, 125I-SEQ ID NO:2 on HBL 100 cells
[3] = target: low affinity (µM range), high surface expression receptor on human tumor cells (VIP receptor) (human); test: as above
[4] = target: high affinity (nM range), low surface expression receptor on human tumor cells (VIP receptor) (human); test: homologous radioligand competition, 125I-SEQ ID NO:2 on L132 cells
[5] = target: low affinity (µM range), high surface expression receptor on human tumor cells (VIP receptor) (human); test: as above
[6] = target: high affinity (nM range), low surface expression receptor on human tumor cells (VIP receptor) (human); test: maximal binding, 125I-SEQ ID NO:2 on PTC cells
[7] = target: low affinity (µM range), high surface expression receptor on human tumor cells (VIP receptor) (human); test: maximal binding, 125I-SEQ ID NO:2 on PTC cells
[8] = target: VIP receptors on human tumor cell lines (human); test: displacement of 125I labeled VIP on A549 cells
[9] = target: VIP receptors on human tumor cell lines (human); test: displacement of 125I labeled VIP (10-28) fragment on HT29 cells
[10] = target: high affinity (nM range), low surface expression receptor on human tumor cells (VIP receptor) (human); test: maximal binding, 125I-SEQ ID NO:2 on KB cells
[11] = target: low affinity (µM range), high surface expression receptor on human tumor cells (VIP receptor) (human); test: maximal binding, 125I-SEQ ID NO:2 on KB cells
[12] = target: VIP receptors on human tumor cell lines (human); test: displacement of 125I labeled VIP (10-28) fragment on 4451 cells
[13] = target: high affinity (nM range), low surface expression receptor on human tumor cells (VIP receptor) (human); test: maximal binding, 125I-SEQ ID NO:2 on HT29 cells
[14] = target: low affinity (µM range), high surface expression receptor on human tumor cells (VIP receptor) (human); test: maximal binding, 125I-SEQ ID NO:2 on HT29 cells
[15] = target: VIP receptors on human tumor cell lines (human); test: displacement of 125I labeled VIP on L132 cells

IC50 [1]: 0.31 nM | Kd [2]: 2.13 nM | Kd [3]: 1600 nM | Kd [4]: 2.6 nM | Kd [5]: 1030 nM | Bmax1 [6]: 830 pM | Bmax2 [7]: 96.6 nM | IC50 [8]: 4.3 nM | IC50 [9]: 0.22 nM | Bmax1 [10]: 602 pM | Bmax2 [11]: 42.9 nM | IC50 [12]: 0.383 nM | Bmax1 [13]: 367 pM | Bmax2 [14]: 67.2 nM | IC50 [15]: 6.8 nM
Binder: HSD[Aib]V[dPhe(4-Cl)]TDNYTRLRKQLAVKKYLNSILN-NH2 (also: 125I-labelled form (iodogen) used as tracer)
